From the supplement of paper PMC9112550, “Optimization of the antimicrobial peptide Bac7 by deep mutational scanning” (BMC Biology, 2022)

Tested on: Escherichia coli TOP10
Experiment: shrunken log2 fold change of peptide-encoding DNA abundance (4.5 h post-induction vs induction); higher = less antimicrobial activity (less host growth inhibition)
Conditions: time post-induction: 4.5 h; library: site-saturation at positions 5, 18, 19, 20
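Also: peptides expressed intracellularly from a pBAD plasmid library in pooled LB shake-flask culture, induced with 0.3% L-arabinose, DNA abundance read by NGS, three biological replicates, DESeq2 with apeglm shrinkage.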

| Sequence | shrunken log2 fold change |
| --- | --- |
| RRIRYRPPRLPRPRPRPEVYPRP | -0.0597 |
| RRIRYRPPRLPRPRPRPEWFPRP | -0.0405 |
| RRIRYRPPRLPRPRPRPEWHPRP | -0.186 |
| RRIRYRPPRLPRPRPRPEYAPRP | -0.0128 |
| RRIRYRPPRLPRPRPRPEYDPRP | -0.104 |
| RRIRYRPPRLPRPRPRPFAWPRP | -0.0365 |
| RRIRYRPPRLPRPRPRPFDLPRP | -0.967 |
| RRIRYRPPRLPRPRPRPFDNPRP | 0.0112 |
| RRIRYRPPRLPRPRPRPFESPRP | -0.0101 |
| RRIRYRPPRLPRPRPRPFGIPRP | -0.149 |
| RRIRYRPPRLPRPRPRPFGPPRP | -0.0934 |
| RRIRYRPPRLPRPRPRPFGRPRP | -0.0018 |
| RRIRYRPPRLPRPRPRPFHHPRP | -1.19 |
| RRIRYRPPRLPRPRPRPFHIPRP | -0.24 |
| RRIRYRPPRLPRPRPRPFIHPRP | -1.54 |
| RRIRYRPPRLPRPRPRPFITPRP | -0.709 |
| RRIRYRPPRLPRPRPRPFLPPRP | -0.557 |
| RRIRYRPPRLPRPRPRPFNRPRP | -0.0175 |
| RRIRYRPPRLPRPRPRPFNWPRP | -0.238 |
| RRIRYRPPRLPRPRPRPFPDPRP | -0.164 |
| RRIRYRPPRLPRPRPRPFPRPRP | -0.0964 |
| RRIRYRPPRLPRPRPRPFPYPRP | -0.0356 |
| RRIRYRPPRLPRPRPRPFQAPRP | -0.464 |
| RRIRYRPPRLPRPRPRPFQCPRP | -0.157 |
| RRIRYRPPRLPRPRPRPFRHPRP | -0.16 |

| Sequence | shrunken log2 fold change |
| --- | --- |
| RRIRYRPPRLPRPRPRPFRWPRP | -0.14 |
| RRIRYRPPRLPRPRPRPFSCPRP | -0.0516 |
| RRIRYRPPRLPRPRPRPFSQPRP | 0.0654 |
| RRIRYRPPRLPRPRPRPFTVPRP | -0.177 |
| RRIRYRPPRLPRPRPRPFVFPRP | -0.95 |
| RRIRYRPPRLPRPRPRPFYAPRP | -0.642 |
| RRIRYRPPRLPRPRPRPGAQPRP | -0.0279 |
| RRIRYRPPRLPRPRPRPGARPRP | -0.00825 |
| RRIRYRPPRLPRPRPRPGCDPRP | -0.282 |
| RRIRYRPPRLPRPRPRPGDEPRP | -0.0823 |
| RRIRYRPPRLPRPRPRPGDTPRP | -0.276 |
| RRIRYRPPRLPRPRPRPGDYPRP | 0.065 |
| RRIRYRPPRLPRPRPRPGFAPRP | -0.00507 |
| RRIRYRPPRLPRPRPRPGFTPRP | -0.149 |
| RRIRYRPPRLPRPRPRPGGPPRP | 0.106 |
| RRIRYRPPRLPRPRPRPGGWPRP | 0.645 |
| RRIRYRPPRLPRPRPRPGHGPRP | -0.111 |
| RRIRYRPPRLPRPRPRPGKEPRP | 0.0011 |
| RRIRYRPPRLPRPRPRPGKVPRP | -0.204 |
| RRIRYRPPRLPRPRPRPGLCPRP | -0.0365 |
| RRIRYRPPRLPRPRPRPGLFPRP | -0.0365 |
| RRIRYRPPRLPRPRPRPGMNPRP | -0.227 |
| RRIRYRPPRLPRPRPRPGMPPRP | -0.403 |
| RRIRYRPPRLPRPRPRPGMVPRP | 2 |
| RRIRYRPPRLPRPRPRPGPAPRP | 0.0198 |

| Sequence | shrunken log2 fold change |
| --- | --- |
| RRIRYRPPRLPRPRPRPGPVPRP | -0.16 |
| RRIRYRPPRLPRPRPRPGQCPRP | 0.00338 |
| RRIRYRPPRLPRPRPRPGQHPRP | -0.179 |
| RRIRYRPPRLPRPRPRPGRCPRP | -0.102 |
| RRIRYRPPRLPRPRPRPGRNPRP | 0.191 |
| RRIRYRPPRLPRPRPRPGRYPRP | -0.912 |
| RRIRYRPPRLPRPRPRPGSHPRP | -1.48 |
| RRIRYRPPRLPRPRPRPGTDPRP | -0.0254 |
| RRIRYRPPRLPRPRPRPGTGPRP | 0.147 |
| RRIRYRPPRLPRPRPRPGVHPRP | -0.452 |
| RRIRYRPPRLPRPRPRPGVMPRP | -0.55 |
| RRIRYRPPRLPRPRPRPGVYPRP | -0.0135 |
| RRIRYRPPRLPRPRPRPGWSPRP | -0.135 |
| RRIRYRPPRLPRPRPRPGWWPRP | 0.316 |
| RRIRYRPPRLPRPRPRPGYFPRP | -0.624 |
| RRIRYRPPRLPRPRPRPGYMPRP | -0.716 |
| RRIRYRPPRLPRPRPRPHAIPRP | -0.268 |
| RRIRYRPPRLPRPRPRPHCHPRP | -0.735 |
| RRIRYRPPRLPRPRPRPHEDPRP | -0.172 |
| RRIRYRPPRLPRPRPRPHEEPRP | -0.018 |
| RRIRYRPPRLPRPRPRPHEGPRP | -0.199 |
| RRIRYRPPRLPRPRPRPHENPRP | -0.212 |
| RRIRYRPPRLPRPRPRPHEQPRP | -0.0662 |
| RRIRYRPPRLPRPRPRPHFIPRP | -0.214 |
| RRIRYRPPRLPRPRPRPHFWPRP | -0.257 |

| Sequence | shrunken log2 fold change |
| --- | --- |
| RRIRYRPPRLPRPRPRPHKMPRP | -0.153 |
| RRIRYRPPRLPRPRPRPHLAPRP | 0.13 |
| RRIRYRPPRLPRPRPRPHLMPRP | -0.126 |
| RRIRYRPPRLPRPRPRPHLNPRP | -1.15 |
| RRIRYRPPRLPRPRPRPHNGPRP | -0.0705 |
| RRIRYRPPRLPRPRPRPHNSPRP | -0.753 |
| RRIRYRPPRLPRPRPRPHPHPRP | -0.744 |
| RRIRYRPPRLPRPRPRPHPNPRP | -0.758 |
| RRIRYRPPRLPRPRPRPHPSPRP | 0.0761 |
| RRIRYRPPRLPRPRPRPHQEPRP | -0.0108 |
| RRIRYRPPRLPRPRPRPHQIPRP | -0.201 |
| RRIRYRPPRLPRPRPRPHQVPRP | -0.208 |
| RRIRYRPPRLPRPRPRPHQYPRP | -0.402 |
| RRIRYRPPRLPRPRPRPHRIPRP | -0.474 |
| RRIRYRPPRLPRPRPRPHRSPRP | -0.017 |
| RRIRYRPPRLPRPRPRPHSQPRP | -0.71 |
| RRIRYRPPRLPRPRPRPHTCPRP | -0.191 |
| RRIRYRPPRLPRPRPRPHTQPRP | -1.1 |
| RRIRYRPPRLPRPRPRPHVQPRP | -0.0701 |
| RRIRYRPPRLPRPRPRPHYWPRP | -0.582 |
| RRIRYRPPRLPRPRPRPIAAPRP | -0.158 |
| RRIRYRPPRLPRPRPRPIAEPRP | 2.73 |
| RRIRYRPPRLPRPRPRPICAPRP | -0.211 |
| RRIRYRPPRLPRPRPRPICDPRP | -0.269 |
| RRIRYRPPRLPRPRPRPIENPRP | -0.0122 |

| Sequence | shrunken log2 fold change |
| --- | --- |
| RRIRYRPPRLPRPRPRPIFTPRP | -0.212 |
| RRIRYRPPRLPRPRPRPIGMPRP | -0.265 |
| RRIRYRPPRLPRPRPRPIGQPRP | 0.013 |
| RRIRYRPPRLPRPRPRPIGTPRP | -0.1 |
| RRIRYRPPRLPRPRPRPIHEPRP | 0.00548 |
| RRIRYRPPRLPRPRPRPIIKPRP | -1.25 |
| RRIRYRPPRLPRPRPRPIISPRP | -0.18 |
| RRIRYRPPRLPRPRPRPIKCPRP | -0.00104 |
| RRIRYRPPRLPRPRPRPILKPRP | -1.06 |
| RRIRYRPPRLPRPRPRPILTPRP | -1.08 |
| RRIRYRPPRLPRPRPRPIMKPRP | 0.0367 |
| RRIRYRPPRLPRPRPRPINRPRP | -0.018 |
| RRIRYRPPRLPRPRPRPIQVPRP | -0.0153 |
| RRIRYRPPRLPRPRPRPIRAPRP | 0.0501 |
| RRIRYRPPRLPRPRPRPISWPRP | -0.0102 |
| RRIRYRPPRLPRPRPRPITNPRP | -0.544 |
| RRIRYRPPRLPRPRPRPIVGPRP | 0.1 |
| RRIRYRPPRLPRPRPRPKAAPRP | 0.067 |
| RRIRYRPPRLPRPRPRPKADPRP | 0.0864 |
| RRIRYRPPRLPRPRPRPKANPRP | -0.512 |
| RRIRYRPPRLPRPRPRPKAPPRP | 0.291 |
| RRIRYRPPRLPRPRPRPKCSPRP | -0.433 |
| RRIRYRPPRLPRPRPRPKDDPRP | -0.153 |
| RRIRYRPPRLPRPRPRPKDQPRP | -0.48 |
| RRIRYRPPRLPRPRPRPKGIPRP | -0.228 |

| Sequence | shrunken log2 fold change |
| --- | --- |
| RRIRYRPPRLPRPRPRPKGNPRP | -0.423 |
| RRIRYRPPRLPRPRPRPKICPRP | -0.0342 |
| RRIRYRPPRLPRPRPRPKISPRP | -0.134 |
| RRIRYRPPRLPRPRPRPKIYPRP | -0.884 |
| RRIRYRPPRLPRPRPRPKKGPRP | -0.444 |
| RRIRYRPPRLPRPRPRPKLAPRP | -0.0901 |
| RRIRYRPPRLPRPRPRPKMYPRP | -1.46 |
| RRIRYRPPRLPRPRPRPKNEPRP | -0.372 |
| RRIRYRPPRLPRPRPRPKPLPRP | 0.276 |
| RRIRYRPPRLPRPRPRPKPMPRP | 0.0517 |
| RRIRYRPPRLPRPRPRPKQIPRP | -0.456 |
| RRIRYRPPRLPRPRPRPKRQPRP | 0.00924 |
| RRIRYRPPRLPRPRPRPKRRPRP | 0.0144 |
| RRIRYRPPRLPRPRPRPKSCPRP | -0.0262 |
| RRIRYRPPRLPRPRPRPKSWPRP | -0.00323 |
| RRIRYRPPRLPRPRPRPKTLPRP | -0.459 |
| RRIRYRPPRLPRPRPRPKWRPRP | 0.0685 |
| RRIRYRPPRLPRPRPRPKWVPRP | -0.0135 |
| RRIRYRPPRLPRPRPRPKYQPRP | -0.213 |
| RRIRYRPPRLPRPRPRPKYYPRP | -1.43 |
| RRIRYRPPRLPRPRPRPLADPRP | -0.213 |
| RRIRYRPPRLPRPRPRPLCHPRP | -1.18 |
| RRIRYRPPRLPRPRPRPLCPPRP | -0.397 |
| RRIRYRPPRLPRPRPRPLDWPRP | 0.171 |
| RRIRYRPPRLPRPRPRPLEFPRP | -0.89 |
